Target: T1, HA-tagged human TGF-β type I receptor (TβRI-HA) (human, UniProt P36897 34-503)
T1 sequence (looked up): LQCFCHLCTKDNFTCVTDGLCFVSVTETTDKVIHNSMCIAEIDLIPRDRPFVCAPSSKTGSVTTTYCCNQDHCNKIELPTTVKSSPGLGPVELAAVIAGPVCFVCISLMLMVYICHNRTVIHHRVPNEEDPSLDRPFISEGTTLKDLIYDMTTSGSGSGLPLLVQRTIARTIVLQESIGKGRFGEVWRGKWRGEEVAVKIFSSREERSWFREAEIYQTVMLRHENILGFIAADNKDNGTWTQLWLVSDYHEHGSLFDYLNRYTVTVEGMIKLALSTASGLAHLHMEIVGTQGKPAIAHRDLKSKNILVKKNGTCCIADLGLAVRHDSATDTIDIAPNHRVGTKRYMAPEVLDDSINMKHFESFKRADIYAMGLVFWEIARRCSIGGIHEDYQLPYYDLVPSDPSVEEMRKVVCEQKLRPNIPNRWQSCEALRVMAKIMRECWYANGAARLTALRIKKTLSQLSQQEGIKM
Assay: antibody-mediated immunofluorescence copatching

B1: myc-tagged human TGF-β type I receptor (TβRI-myc) (receptor, UniProt P36897 34-503, looked up)
chain: T1 sequence (looked up)
stoichiometry N: 2
